From patent US20160355553A1 (Janssen / Centocor, published 2016)

Tests used:
[1] = target: H3mini2-cl9+10+11-GCN4 (influenza A virus H3N2); experiment: FACS on HEK293F [D00012 FIG. 9B]
[2] = target: H3-mini2-cl9+10+11+13 (influenza A virus H3N2, UniProt O11283 17-566); experiment: FACS on HEK293F [D00012 FIG. 9B]
[3] = target: H3-mini2-cl9+10+11 (influenza A virus H3N2, UniProt O11283 17-566); experiment: FACS on HEK293F [D00012 FIG. 9B]
[4] = target: H3-mini2-cl9+10+11+12 (influenza A virus H3N2, UniProt O11283 17-566); experiment: FACS on HEK293F [D00012 FIG. 9B]
[5] = target: H3-mini2-cl9+10+11+13-tri (influenza A virus H3N2); experiment: FACS on HEK293F [D00012 FIG. 9B]
[6] = target: H3-mini2-cl9+11 (influenza A virus H3N2, UniProt O11283 17-566); experiment: FACS on HEK293F [D00012 FIG. 9B]
[7] = target: H3-mini2-cl9+13 (influenza A virus H3N2, UniProt O11283 17-566); experiment: FACS on HEK293F [D00012 FIG. 9B]
[8] = target: H3-mini2-cl9+10+11-tri (influenza A virus H3N2); experiment: FACS on HEK293F [D00012 FIG. 9B]
[9] = target: H3-mini2 (influenza A virus H3N2, UniProt O11283 17-566); experiment: FACS on HEK293F [D00012 FIG. 9B]
[10] = target: H3-mini4-cl9+10+11+12+14 (influenza A virus H3N2, UniProt O11283 17-566); experiment: FACS on HEK293F [D00012 FIG. 9B]
[11] = target: H3-mini2-cl9+10 (influenza A virus H3N2, UniProt O11283 17-566); experiment: FACS on HEK293F [D00012 FIG. 9B]
[12] = target: H3-mini2-cl9+10+12 (influenza A virus H3N2, UniProt O11283 17-566); experiment: FACS on HEK293F [D00012 FIG. 9B]
[13] = target: H3-mini2-cl9+10+11+13-GCN4 (influenza A virus H3N2); experiment: FACS on HEK293F [D00012 FIG. 9B]
[14] = target: H3-mini3-cl9+10+11+12+14 (influenza A virus H3N2, UniProt O11283 17-566); experiment: FACS on HEK293F [D00012 FIG. 9B]
[15] = target: H3-mini2-cl9+10+11+12-tri (influenza A virus H3N2, UniProt O11283 17-566); experiment: FACS on HEK293F [D00012 FIG. 9B]
[16] = target: H3-mini2-cl9+10+11+12-GCN4 (influenza A virus H3N2, UniProt O11283 17-566); experiment: FACS on HEK293F [D00012 FIG. 9B]
[17] = target: H3 Full-length A/Hong Kong/1/1968 (influenza A virus H3N2, UniProt Q91MA7 17-566); experiment: FACS on HEK293F [D00014 FIG. 10B]
[18] = target: mini1 cluster11 (A/Brisbane/59/2007) (influenza A virus H1N1, UniProt A8C8J4 18-565); experiment: FACS on HEK293F
[19] = target: mini3 cluster11 (A/Brisbane/59/2007) (influenza A virus H1N1, UniProt A8C8J4 18-565); experiment: FACS on HEK293F
[20] = target: mini2 cluster11 (A/Brisbane/59/2007) (influenza A virus H1N1, UniProt A8C8J4 18-565); experiment: FACS on HEK293F
[21] = target: H3 Mini-HA cluster 1+7 (influenza A virus H3N2, UniProt O11283 17-566); experiment: FACS on HEK293F [D00010 FIG. 8B]
[22] = target: H3 Mini-HA cluster 1 (influenza A virus H3N2, UniProt O11283 17-566); experiment: FACS on HEK293F [D00010 FIG. 8B]
[23] = target: H3 Mini-HA cluster 1+8 (influenza A virus H3N2, UniProt O11283 17-566); experiment: FACS on HEK293F [D00010 FIG. 8B]
[24] = target: H3 Mini-HA cluster 1+6 (influenza A virus H3N2, UniProt O11283 17-566); experiment: FACS on HEK293F [D00010 FIG. 8B]
[25] = target: H3 Mini-HA cluster 1+2 (influenza A virus H3N2, UniProt O11283 17-566); experiment: FACS on HEK293F [D00010 FIG. 8B]
[26] = target: H3 Mini-HA cluster 1+4 (influenza A virus H3N2, UniProt O11283 17-566); experiment: FACS on HEK293F [D00010 FIG. 8B]
[27] = target: H3 Mini-HA cluster 1+3 (influenza A virus H3N2, UniProt O11283 17-566); experiment: FACS on HEK293F [D00010 FIG. 8B]

B1: CR6261 (antibody, V domains shown)
VH: EVQLVESGAEVKKPGSSVKVSCKASGGPFRSYAISWVRQAPGQGPEWMGGIIPIFGTTKYAPKFQGRVTITADDFAGTVYMELSSLRSEDTAMYYCAKHMGYQVRETMDVWGKGTTVTVSS
VL: QSVLTQPPSVSAAPGQKVTISCSGSSSNIGNDYVSWYQQLPGTAPKLLIYDNNKRPSGIPDRFSGSKSGTSATLGITGLQTGDEANYYCATWDRRPTAYVVFGGGTKLTVLG
B1: no binding (tested: 5 ug/ml) [1]; no binding (tested: 5 ug/ml) [2]; no binding (tested: 5 ug/ml) [3]. B1: no binding (tested: 5 ug/ml) [4]; no binding (tested: 5 ug/ml) [5]; no binding (tested: 5 ug/ml) [6]. B1: no binding (tested: 5 ug/ml) [7]; no binding (tested: 5 ug/ml) [8]; no binding (tested: 5 ug/ml) [9]. B1: no binding (tested: 5 ug/ml) [10]; no binding (tested: 5 ug/ml) [11]; no binding (tested: 5 ug/ml) [12]. B1: no binding (tested: 5 ug/ml) [13]; no binding (tested: 5 ug/ml) [14]; no binding (tested: 5 ug/ml) [15]. B1: no binding (tested: 5 ug/ml) [16]; no binding (tested: 5 ug/ml) [17]; binds [18]. B1: binds [19]; binds [20]; no binding (tested: 5 ug/ml) [21]. B1: no binding (tested: 5 ug/ml) [22]; no binding (tested: 5 ug/ml) [23]; no binding (tested: 5 ug/ml) [24]. B1: no binding (tested: 5 ug/ml) [25]; no binding (tested: 5 ug/ml) [26]; no binding (tested: 5 ug/ml) [27].
